Assays:
Test in all cases: holdup assay
Parameters in all cases: key: below the threshold = too weak to quantify, mostly under pKd 3.1 to 4
ARHGEF12, Q9NZN5-2 = molecular target: ARHGEF12, Q9NZN5-2
SNTB1, Q13884 = molecular target: T1, SNTB1, Q13884
T1 sequence (Q13884 107-205, limits assumed, looked up): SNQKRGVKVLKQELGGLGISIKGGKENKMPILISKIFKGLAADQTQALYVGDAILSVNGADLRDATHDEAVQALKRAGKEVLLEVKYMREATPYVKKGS

PDLIM1, O00151 = molecular target: PDLIM1, O00151
PDZRN3_1, Q9UPQ7 = molecular target: T2, PDZRN3_1, Q9UPQ7
T2 sequence (Q9UPQ7 244-349, limits assumed, looked up): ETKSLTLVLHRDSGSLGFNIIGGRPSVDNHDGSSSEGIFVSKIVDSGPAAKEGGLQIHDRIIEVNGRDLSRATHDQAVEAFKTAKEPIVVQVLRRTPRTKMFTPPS

LIN7B, Q9HAP6 = molecular target: T3, LIN7B, Q9HAP6
T3 sequence (Q9HAP6 88-185, limits assumed, looked up): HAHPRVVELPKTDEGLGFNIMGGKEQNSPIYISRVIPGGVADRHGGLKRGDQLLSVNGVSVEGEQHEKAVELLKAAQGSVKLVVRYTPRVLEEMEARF

LNX1_3, Q8TBB1 = molecular target: LNX1_3, Q8TBB1
Sequence of LNX1_3, Q8TBB1 (Q8TBB1 500-596): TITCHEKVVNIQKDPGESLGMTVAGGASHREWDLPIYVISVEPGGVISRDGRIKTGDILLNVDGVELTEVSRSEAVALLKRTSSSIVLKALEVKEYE

MPP6, Q9NZW5 = molecular target: T4, MPP6, Q9NZW5
T4 sequence (Q9NZW5 125-219, limits assumed, looked up): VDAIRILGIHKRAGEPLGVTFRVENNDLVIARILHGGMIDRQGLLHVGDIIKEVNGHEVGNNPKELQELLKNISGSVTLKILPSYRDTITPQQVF

SCRIB_2, Q14160 = molecular target: SCRIB_2, Q14160
Sequence of SCRIB_2, Q14160 (Q14160 857-960): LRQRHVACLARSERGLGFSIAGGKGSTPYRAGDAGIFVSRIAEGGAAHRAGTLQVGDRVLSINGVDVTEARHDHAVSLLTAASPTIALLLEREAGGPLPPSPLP

TJP1_2, Q07157 = molecular target: TJP1_2, Q07157
Sequence of TJP1_2, Q07157 (Q07157 181-274): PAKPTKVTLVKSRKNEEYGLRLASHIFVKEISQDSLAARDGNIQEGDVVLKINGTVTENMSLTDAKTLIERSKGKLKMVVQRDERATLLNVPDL

MAST2, Q6P0Q8 = molecular target: MAST2, Q6P0Q8
Sequence of MAST2, Q6P0Q8 (Q6P0Q8 1099-1202): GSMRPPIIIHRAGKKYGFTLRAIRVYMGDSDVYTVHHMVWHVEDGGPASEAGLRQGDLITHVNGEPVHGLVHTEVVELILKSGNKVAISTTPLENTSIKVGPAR

DLG2_3, Q15700 = molecular target: DLG2_3, Q15700
LDB3, O75112 = molecular target: LDB3, O75112
Sequence of LDB3, O75112 (O75112 1-94): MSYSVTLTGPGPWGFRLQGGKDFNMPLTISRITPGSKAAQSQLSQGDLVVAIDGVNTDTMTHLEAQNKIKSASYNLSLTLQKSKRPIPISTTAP

GRIP2_5, Q9C0E4 = molecular target: GRIP2_5, Q9C0E4
Sequence of GRIP2_5, Q9C0E4 (Q9C0E4 544-642): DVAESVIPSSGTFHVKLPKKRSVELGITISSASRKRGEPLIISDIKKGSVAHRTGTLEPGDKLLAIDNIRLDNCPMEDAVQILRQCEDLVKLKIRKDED

DLG3_1, Q92796 = molecular target: T5, DLG3_1, Q92796
T5 sequence (Q92796 125-227, limits assumed, looked up): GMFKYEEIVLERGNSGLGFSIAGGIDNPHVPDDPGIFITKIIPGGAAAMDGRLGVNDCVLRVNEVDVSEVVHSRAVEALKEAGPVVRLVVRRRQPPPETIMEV

TX1BP3, O14907 = molecular target: T6, TX1BP3, O14907
T6 sequence (O14907 10-122, limits assumed, looked up): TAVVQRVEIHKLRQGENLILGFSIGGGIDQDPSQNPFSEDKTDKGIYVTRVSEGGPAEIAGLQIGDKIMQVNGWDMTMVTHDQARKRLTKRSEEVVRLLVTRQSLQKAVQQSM

GRIP2_3, Q9C0E4 = molecular target: GRIP2_3, Q9C0E4
Sequence of GRIP2_3, Q9C0E4 (Q9C0E4 238-339): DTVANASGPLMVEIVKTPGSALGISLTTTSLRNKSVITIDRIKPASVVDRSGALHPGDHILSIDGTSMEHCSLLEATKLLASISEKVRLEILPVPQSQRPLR

GRIP2_6, Q9C0E4 = molecular target: GRIP2_6, Q9C0E4
Sequence of GRIP2_6, Q9C0E4 (Q9C0E4 648-740): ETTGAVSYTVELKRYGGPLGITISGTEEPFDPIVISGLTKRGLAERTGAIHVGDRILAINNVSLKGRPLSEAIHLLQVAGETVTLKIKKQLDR

GORASP2, Q9H8Y8 = molecular target: GORASP2, Q9H8Y8
DLG2_2, Q15700 = molecular target: DLG2_2, Q15700
Inadl_1, Q8NI35 = molecular target: Inadl_1, Q8NI35
Sequence of Inadl_1, Q8NI35 (Q8NI35 113-229): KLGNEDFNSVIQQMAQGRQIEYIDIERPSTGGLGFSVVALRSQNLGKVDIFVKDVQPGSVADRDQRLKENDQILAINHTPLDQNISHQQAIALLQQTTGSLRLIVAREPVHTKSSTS

LRRC7, Q96NW7 = molecular target: T7, LRRC7, Q96NW7
T7 sequence (Q96NW7 1440-1537, limits assumed, looked up): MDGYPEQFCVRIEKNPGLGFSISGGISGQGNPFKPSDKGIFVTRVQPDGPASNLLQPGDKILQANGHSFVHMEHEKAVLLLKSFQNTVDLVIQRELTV

MPP2, Q14168 = molecular target: T8, MPP2, Q14168
T8 sequence (Q14168 180-250, limits assumed, looked up): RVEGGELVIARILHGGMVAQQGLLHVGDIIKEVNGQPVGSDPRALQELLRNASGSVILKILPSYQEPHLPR

NHERF3_4, Q5T2W1 = molecular target: T9, NHERF3_4, Q5T2W1
T9 sequence (Q5T2W1 373-468, limits assumed, looked up): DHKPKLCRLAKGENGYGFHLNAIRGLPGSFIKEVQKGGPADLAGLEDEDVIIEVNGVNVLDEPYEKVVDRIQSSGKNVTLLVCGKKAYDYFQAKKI

FRMPD2_1, Q68DX3 = molecular target: FRMPD2_1, Q68DX3
Sequence of FRMPD2_1, Q68DX3 (Q68DX3 770-861): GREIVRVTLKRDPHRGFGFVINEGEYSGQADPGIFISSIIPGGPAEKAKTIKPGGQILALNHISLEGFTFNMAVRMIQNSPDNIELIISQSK

NHERF3_1, Q5T2W1 = molecular target: T10, NHERF3_1, Q5T2W1
T10 sequence (Q5T2W1 4-100, limits assumed, looked up): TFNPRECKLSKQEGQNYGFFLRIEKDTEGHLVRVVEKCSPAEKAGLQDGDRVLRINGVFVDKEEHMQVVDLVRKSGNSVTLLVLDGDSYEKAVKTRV

HTRA4, P83105 = molecular target: T11, HTRA4, P83105
T11 sequence (P83105 378-476, limits assumed, looked up): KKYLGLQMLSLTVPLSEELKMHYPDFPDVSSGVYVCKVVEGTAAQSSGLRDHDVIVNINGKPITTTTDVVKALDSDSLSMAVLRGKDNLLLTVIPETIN

[1] = plain residues with an end cap or a label only (N-terminal biotin on a linker: ahx)
[2] = plain residues with an end cap or a label only (N-terminal biotin on a linker: ttds)
[3] = plain residues with an end cap or a label only (N-terminal biotin on a linker: ado-ado)

Sequence of ARHGEF12, Q9NZN5-2 (Q9NZN5 other isoform, or with tags, fused parts or gaps): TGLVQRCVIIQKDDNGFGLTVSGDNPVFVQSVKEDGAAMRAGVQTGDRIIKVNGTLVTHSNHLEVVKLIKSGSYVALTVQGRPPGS
Sequence of PDLIM1, O00151 (O00151 1-87): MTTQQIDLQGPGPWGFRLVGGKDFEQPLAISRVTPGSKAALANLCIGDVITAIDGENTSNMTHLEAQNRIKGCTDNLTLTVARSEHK

RNCSTNDSLL [ADRB2, P07550]
pKd (ARHGEF12, Q9NZN5-2; [1]): below the threshold
pKd (SNTB1, Q13884; [1]): below the threshold
pKd (PDLIM1, O00151; [1]): 3.77
pKd (PDZRN3_1, Q9UPQ7; [1]): 3.54
pKd (LIN7B, Q9HAP6; [1]): below the threshold
pKd (LNX1_3, Q8TBB1; [1]): below the threshold
pKd (MPP6, Q9NZW5; [1]): below the threshold
pKd (SCRIB_2, Q14160; [1]): below the threshold
pKd (TJP1_2, Q07157; [1]): below the threshold
pKd (MAST2, Q6P0Q8; [1]): 4.08
pKd (DLG2_3, Q15700; [1]): below the threshold
pKd (LDB3, O75112; [1]): below the threshold
pKd (GRIP2_5, Q9C0E4; [1]): below the threshold
pKd (DLG3_1, Q92796; [1]): below the threshold
pKd (TX1BP3, O14907; [1]): 3.49
pKd (GRIP2_3, Q9C0E4; [1]): below the threshold
pKd (GRIP2_6, Q9C0E4; [1]): below the threshold
pKd (GORASP2, Q9H8Y8; [1]): 3.52
pKd (DLG2_2, Q15700; [1]): below the threshold
pKd (Inadl_1, Q8NI35; [1]): below the threshold
pKd (LRRC7, Q96NW7; [1]): below the threshold
pKd (MPP2, Q14168; [1]): below the threshold
pKd (NHERF3_4, Q5T2W1; [1]): 3.54
pKd (FRMPD2_1, Q68DX3; [1]): below the threshold
pKd (NHERF3_1, Q5T2W1; [1]): 3.89
pKd (HTRA4, P83105; [1]): below the threshold

DPLTPSRSQL [DGKK, Q5KSL6]
pKd (ARHGEF12, Q9NZN5-2; [2]): 3.86
pKd (SNTB1, Q13884; [2]): below the threshold
pKd (PDLIM1, O00151; [2]): below the threshold
pKd (PDZRN3_1, Q9UPQ7; [2]): below the threshold
pKd (LIN7B, Q9HAP6; [2]): below the threshold
pKd (LNX1_3, Q8TBB1; [2]): below the threshold
pKd (MPP6, Q9NZW5; [2]): below the threshold
pKd (SCRIB_2, Q14160; [2]): below the threshold
pKd (TJP1_2, Q07157; [2]): below the threshold
pKd (MAST2, Q6P0Q8; [2]): 4.36
pKd (DLG2_3, Q15700; [2]): 3.73
pKd (LDB3, O75112; [2]): below the threshold
pKd (GRIP2_5, Q9C0E4; [2]): below the threshold
pKd (DLG3_1, Q92796; [2]): below the threshold
pKd (TX1BP3, O14907; [2]): below the threshold
pKd (GRIP2_3, Q9C0E4; [2]): below the threshold
pKd (GRIP2_6, Q9C0E4; [2]): below the threshold
pKd (GORASP2, Q9H8Y8; [2]): 4.21
pKd (DLG2_2, Q15700; [2]): 3.59
pKd (Inadl_1, Q8NI35; [2]): below the threshold
pKd (LRRC7, Q96NW7; [2]): below the threshold
pKd (MPP2, Q14168; [2]): below the threshold
pKd (NHERF3_4, Q5T2W1; [2]): below the threshold
pKd (FRMPD2_1, Q68DX3; [2]): below the threshold
pKd (NHERF3_1, Q5T2W1; [2]): below the threshold
pKd (HTRA4, P83105; [2]): below the threshold

QKNKDKEYYV [NRXN3_rs746444206, Q9Y4C0]
pKd (ARHGEF12, Q9NZN5-2; [3]): below the threshold
pKd (SNTB1, Q13884; [3]): below the threshold
pKd (PDLIM1, O00151; [3]): below the threshold
pKd (PDZRN3_1, Q9UPQ7; [3]): below the threshold
pKd (LIN7B, Q9HAP6; [3]): 3.59
pKd (LNX1_3, Q8TBB1; [3]): 3.99
pKd (MPP6, Q9NZW5; [3]): 4.43
pKd (SCRIB_2, Q14160; [3]): below the threshold
pKd (TJP1_2, Q07157; [3]): below the threshold
pKd (MAST2, Q6P0Q8; [3]): 3.97
pKd (DLG2_3, Q15700; [3]): below the threshold
pKd (LDB3, O75112; [3]): below the threshold
pKd (GRIP2_5, Q9C0E4; [3]): below the threshold
pKd (DLG3_1, Q92796; [3]): below the threshold
pKd (TX1BP3, O14907; [3]): below the threshold
pKd (GRIP2_3, Q9C0E4; [3]): below the threshold
pKd (GRIP2_6, Q9C0E4; [3]): 4.02
pKd (GORASP2, Q9H8Y8; [3]): 4.47
pKd (DLG2_2, Q15700; [3]): below the threshold
pKd (Inadl_1, Q8NI35; [3]): 3.51
pKd (LRRC7, Q96NW7; [3]): below the threshold
pKd (MPP2, Q14168; [3]): 4.12
pKd (NHERF3_4, Q5T2W1; [3]): below the threshold
pKd (FRMPD2_1, Q68DX3; [3]): 3.69
pKd (NHERF3_1, Q5T2W1; [3]): 4.43
pKd (HTRA4, P83105; [3]): below the threshold

RGGFGRQTQI [NCBP2L, A6PVI3]
pKd (ARHGEF12, Q9NZN5-2; [3]): 4.28
pKd (SNTB1, Q13884; [3]): 4.51
pKd (PDLIM1, O00151; [3]): below the threshold
pKd (PDZRN3_1, Q9UPQ7; [3]): 3.74
pKd (LIN7B, Q9HAP6; [3]): 3.89
pKd (LNX1_3, Q8TBB1; [3]): below the threshold
pKd (MPP6, Q9NZW5; [3]): below the threshold
pKd (SCRIB_2, Q14160; [3]): below the threshold
pKd (TJP1_2, Q07157; [3]): below the threshold
pKd (MAST2, Q6P0Q8; [3]): 5.6
pKd (DLG2_3, Q15700; [3]): 4.54
pKd (LDB3, O75112; [3]): 3.66
pKd (GRIP2_5, Q9C0E4; [3]): below the threshold
pKd (DLG3_1, Q92796; [3]): 3.58
pKd (TX1BP3, O14907; [3]): 4.4
pKd (GRIP2_3, Q9C0E4; [3]): below the threshold
pKd (GRIP2_6, Q9C0E4; [3]): below the threshold
pKd (GORASP2, Q9H8Y8; [3]): 4.19
pKd (DLG2_2, Q15700; [3]): 4.65
pKd (Inadl_1, Q8NI35; [3]): below the threshold
pKd (LRRC7, Q96NW7; [3]): below the threshold
pKd (MPP2, Q14168; [3]): below the threshold
pKd (NHERF3_4, Q5T2W1; [3]): below the threshold
pKd (FRMPD2_1, Q68DX3; [3]): below the threshold
pKd (NHERF3_1, Q5T2W1; [3]): 4.54
pKd (HTRA4, P83105; [3]): below the threshold

HSGSYLVTSV [APC, P25054]
pKd (ARHGEF12, Q9NZN5-2; [1]): 5.02
pKd (SNTB1, Q13884; [1]): 4.05
pKd (PDLIM1, O00151; [1]): below the threshold
pKd (PDZRN3_1, Q9UPQ7; [1]): below the threshold
pKd (LIN7B, Q9HAP6; [1]): below the threshold
pKd (LNX1_3, Q8TBB1; [1]): below the threshold
pKd (MPP6, Q9NZW5; [1]): below the threshold
pKd (SCRIB_2, Q14160; [1]): 4.33
pKd (TJP1_2, Q07157; [1]): below the threshold
pKd (MAST2, Q6P0Q8; [1]): 5.11
pKd (DLG2_3, Q15700; [1]): 4.67
pKd (LDB3, O75112; [1]): below the threshold
pKd (GRIP2_5, Q9C0E4; [1]): below the threshold
pKd (DLG3_1, Q92796; [1]): 3.82
pKd (TX1BP3, O14907; [1]): 5.53
pKd (GRIP2_3, Q9C0E4; [1]): below the threshold
pKd (GRIP2_6, Q9C0E4; [1]): below the threshold
pKd (GORASP2, Q9H8Y8; [1]): 4.41
pKd (DLG2_2, Q15700; [1]): 5.11
pKd (Inadl_1, Q8NI35; [1]): below the threshold
pKd (LRRC7, Q96NW7; [1]): 4.14
pKd (MPP2, Q14168; [1]): below the threshold
pKd (NHERF3_4, Q5T2W1; [1]): below the threshold
pKd (FRMPD2_1, Q68DX3; [1]): below the threshold
pKd (NHERF3_1, Q5T2W1; [1]): below the threshold
pKd (HTRA4, P83105; [1]): 4.51
